Entries after “also recorded” stand apart in the source; their conditions may differ. One block for each molecule: values may come before it.
Legend:
human pro-MMP-9 = target: T1, human pro-MMP-9 (Homo sapiens, UniProt P14780); test: Biacore binding of analyte to coated antibody; conditions: Direct capture, 25° C.
T1 construct: the human pro-MMP-9 (R&D, 911-MP); purchased R&D 911-MP
Description: (§1) The non competitive inhibition model implies that the ternary complex enzyme-substrate-inhibitor can form. It is however possible that this complex cannot form with bigger substrates, in which case the antibody would behave as a competitive inhibitor. In order to address this issue, the ability of M0237-D02 antibody to bind to the h-MMP-9 when the enzyme is complexed to its natural inhibitor h-TIMP-1 was determined. The reasoning is that if the antibody cannot bind to the h-MMP-9/h-TIMP-1 complex, it would probably behave as a competitive inhibitor of this enzyme in the presence of bigger substrates.
(§2) Experiments were performed at 25° C. with the help of a Biacore 3000 instrument. The MMP-9 binding protein (M0166F10) and the M0237-D02 antibody were coated to a CM5 chip either via standard amine coupling or using an anti-Fc antibody surface. Then either the active, human MMP-9 catalytic domain (BIOMOL, SE-244), the human pro-MMP-9 (R&D, 911-MP), the human TIMP-1 (R&D, 970-TM) or a h-MMP-9/h-TIMP-1 complex were flowed over the antibody surfaces, and binding was recorded.

h-MMP-9/h-TIMP-1 complex = h-MMP-9/h-TIMP-1 complex (Homo sapiens, UniProt P14780); test: Biacore binding of analyte to coated antibody; conditions: 25° C.
Chain of h-MMP-9/h-TIMP-1 complex (P14780 107-449 limits assumed): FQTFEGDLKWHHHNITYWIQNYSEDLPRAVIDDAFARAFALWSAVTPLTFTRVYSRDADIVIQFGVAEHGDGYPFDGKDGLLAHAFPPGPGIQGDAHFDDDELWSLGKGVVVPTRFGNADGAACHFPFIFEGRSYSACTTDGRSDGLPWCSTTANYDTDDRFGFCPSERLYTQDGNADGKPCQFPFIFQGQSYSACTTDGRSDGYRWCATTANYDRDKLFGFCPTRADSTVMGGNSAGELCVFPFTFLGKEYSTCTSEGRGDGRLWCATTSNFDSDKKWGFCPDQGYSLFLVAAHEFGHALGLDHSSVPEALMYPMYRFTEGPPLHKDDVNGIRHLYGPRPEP
Chain of h-MMP-9/h-TIMP-1 complex (P01033 24-207 partner): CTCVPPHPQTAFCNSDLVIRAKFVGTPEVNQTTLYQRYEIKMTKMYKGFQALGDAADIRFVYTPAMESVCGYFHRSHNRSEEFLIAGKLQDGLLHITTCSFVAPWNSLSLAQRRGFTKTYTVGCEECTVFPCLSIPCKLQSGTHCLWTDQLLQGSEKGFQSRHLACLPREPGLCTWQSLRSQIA
Description: as §1, §2

[1] = target: T2, Human MMP-9 catalytic domain (Homo sapiens, UniProt P14780); test: Biacore binding of analyte to coated antibody; conditions: 25° C.
T2 construct: Human MMP-9 catalytic domain (BIOMOL, SE-244); purchased BIOMOL SE-244
T2 sequence (P14780 107-449 limits assumed): as the sequence (P14780 107-449 limits assumed) above
Description: as §1, §2

human TIMP-1 = target: T3, human TIMP-1 (Homo sapiens, UniProt P01033); test: Biacore binding of analyte to coated antibody; conditions: Direct capture; 25° C.
T3 construct: purchased R&D 970-TM
T3 sequence (P01033 24-207): as the sequence (P01033 24-207 partner) above
Description: as §1, §2

[2] = test system: inflammatory cell infiltration into the carrageenan-stimulated mouse air pouch; test: Carrageenan-stimulated mouse air pouch model; type: in vivo; conditions: FIG. 2
Description: (§3) The purpose of the following experiments were to determine the effect of 539A-M0237-D02 on inflammation and specifically on inflammatory cell infiltration into the carrageenan-stimulated mouse air pouch and on the arthritic index in collagen-induced arthritis (CIA) mice.
For the carrageenan-stimulated mouse air pouch model, subcutaneous injection of air into the hind flank or back of mice produces an air pouch in a week, the interior surface of which contains both fibroblast-like and macrophage-like cells. Inflammatory stimulation of the pouch results in leukocyte recruitment to the pouch and release of mediators (cytokines) into the exudate. Preventing inflammatory cell infiltration into the air pouch may translate into preventing inflammation of the synovium in rheumatoid arthritis.
The effect of 539A-M0237-D02 on inflammatory cell infiltration was compared to inflammatory cell infiltration indomethacin and a control (PBS). In addition, inflammatory cell recruitment was compared to an unstimulated mouse.

Mouse MMP-9 = target: T4, Mouse MMP-9 (Mus musculus, UniProt P41245); test: Ki determination with fluorogenic peptide substrate; type: biochemical; conditions: fluorogenic peptide substrates
T4 construct: purchased R&D 909-MM
T4 sequence (P41245 108-730): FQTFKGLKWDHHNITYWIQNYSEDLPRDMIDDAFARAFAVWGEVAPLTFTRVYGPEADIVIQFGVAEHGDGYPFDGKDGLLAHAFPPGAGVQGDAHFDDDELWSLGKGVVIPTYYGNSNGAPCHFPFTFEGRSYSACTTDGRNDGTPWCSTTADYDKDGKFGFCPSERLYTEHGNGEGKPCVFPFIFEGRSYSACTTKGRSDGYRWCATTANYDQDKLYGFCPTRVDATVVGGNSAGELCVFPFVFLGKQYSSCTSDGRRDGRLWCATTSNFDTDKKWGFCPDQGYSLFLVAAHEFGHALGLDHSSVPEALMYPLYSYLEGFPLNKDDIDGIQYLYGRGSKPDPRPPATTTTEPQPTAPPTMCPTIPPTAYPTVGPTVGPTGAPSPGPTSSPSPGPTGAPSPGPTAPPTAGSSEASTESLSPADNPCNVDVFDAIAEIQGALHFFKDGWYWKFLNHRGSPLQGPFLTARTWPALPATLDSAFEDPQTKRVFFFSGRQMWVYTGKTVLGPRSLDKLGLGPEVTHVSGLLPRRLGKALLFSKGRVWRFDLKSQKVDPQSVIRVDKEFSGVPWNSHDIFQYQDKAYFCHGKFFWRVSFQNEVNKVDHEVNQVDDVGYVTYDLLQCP
Description: (§4) This example characterized the interaction of the M0237-D02 hIgG1 with the human and mouse MMP-9. The Ki was measured and the inhibition mechanism was determined.
(§5) Materials: • Substrate: Mca -KPLGL-Dap(Dnp)-AR-NH2(SEQ ID NO: 1279) (M-2350) from BACHEM (521575). A 10mM stock solution was prepared in DMSO. • Enzymes: • Human MMP-9 catalytic domain (BIOMOL, SE-244). Enzyme concentration was measured by titration with TIMP-1 (2522-104) • Mouse MMP-9 (R&D, 909-MM), APMA-activated. • M0237-D02 hIgG1 : 2517-014. Dialysed against TCN. • TCNB: 50 mM Tris/HCl, 10 mM CaCl2, 150 mM NaCl, 0.05% Brij 35, pH 7.5. • 96-well black plates from Perkin Elmer (6005270) • Spectramax M2e to measure fluorescence emission of the substrate upon hydrolysis (temperature control set at 30° C.; λexc=328 nm and λem=393 nm)
(§6) The enzyme (final concentration=0.23 and 0.17 nM for the human and mouse MMP-9, respectively) was preincubated with various concentrations (0-50 nM) of M0237-D02 for 1 h at 30° C. The substrate was then added to a final concentration ranging from 5 to 40 μM and initial rates were recorded.
(§7) Each data point was measured in triplicate, and initial rates were averaged.
(§8) Averaged initial rates were plotted against the M0237-D02 concentration for each substrate concentration, and IC50's were calculated using the following equation: […]
(§9) The IC50 values were then plotted against the substrate concentration.

[3] = target: T2, Human MMP-9 catalytic domain; test: as above; type: biochemical; conditions: fluorogenic peptide substrates
Description: as §4, §5, §6, §7, §8, §9

[4] = test system: gelatinolytic activity (tumoral MMP-2-9) in MCF-7 tumor sections; test: Film in situ zymography (FIZ); type: biochemical, human; conditions: 500 nM, 37° C. overnight
Description: (§10) PBS-control treated tumors were screened with M0237-D02 for gelatinase expression using the FIZ approach. The tumors tested were Colo205 and MCF-7. Briefly, frozen slides of tumpor sections were dried at room temperature and 200 μl of in situ Zymo buffer (TCNB)+20 μg/ml of gelatin quenched substrate from molecular probes was added. The slides were incubate at 37° c. overnight in the presence of M0237-D02 at 500 nM or GM6001 used as a positive control at 100 μM. The substrate was washed in MilliQ (3 times) and the mounted slides were treated with anti-Fade+Dapi mounting medium.

[5] = test system: gelatinolytic activity (tumoral MMP-2-9) in Colo205 tumor sections; test: Film in situ zymography (FIZ); type: biochemical, human; conditions: 500 nM, 37° C. overnight
Description: as §10

[6] = test system: collagen-induced arthritis (CIA) mice; test: Collagen-induced arthritis (CIA) mice; type: in vivo, mouse; conditions: CIA model, compared to untreated mice; FIG. 3
Description: as §3
The collagen-induced arthritis (CIA) was produced by the immunization of susceptible strains of mice with native type II collagen. The collagen was emulsified in Freund's complete adjuvant and injected subcutaneously. A booster injection of collagen in incomplete adjuvant was given IP 21 days after the initial immunization. The disease is due to an auto-immune response induced upon immunization with collagen.
The effect 539A-M0237-D02 on the arthritic index was compared to administration of methotrexate (MTX).

[7] = target: T2, Human MMP-9 catalytic domain; test: Inhibition progress curves and kinetic analysis; type: biochemical; conditions: 25° C.; for kobs: substrate 9 μM
Description: The kinetics of the interaction between M0237-D02 and the human MMP-9 were determined. The rates were determined using the following equation: […]
The second order rate constant for the association of the enzyme E and the inhibitor I (kon) and the first order rate constant for the dissociation of the complex El (koff) can be calculated from inhibition progress curves obtained at different inhibitor concentrations.
Materials: • Substrate: Mca -KPLGL-Dap(Dnp)-AR-NH2(SEQ ID NO: 1279) (M-2350) from BACHEM (521575). A 10mM stock solution was prepared in DMSO. • Human MMP-9 catalytic domain (BIOMOL, SE-244). • M0237-D02 hIgG1 : 2517-068. • All measurements were performed at 25° C. in TCNB: 50 mM Tris/HCl, 10 mM CaCl2, 150mM NaCl 0.05% Brij 35, pH 7.5. • 96-well black plates from Perkin Elmer (6005270) • Spectramax M2e to measure fluorescence emission of the substrate upon hydrolysis (λexc=328 nm and λem=393 nm)
The enzyme (at a final concentration ranging from 1.5 to 12.3 nM), the substrate (9 μM final) and the M0237-D02 antibody were mixed, and the fluorescence was immediately recorded in order to follow the hydrolysis of the substrate. The observed inhibition rate (kobs) was obtained by analyzing the progress curves with a single exponential. The value for kon and koff were calculated from the plot of the kobs vs. the antibody concentration using the following equation: kobs=kon[I]+koff
kobs was measured at four antibody concentrations (table below): […]

[8] = Direct capture (amine coupling) of antibody on CM5 chip
[9] = Fc capture (anti-Fc antibody surface)
[10] = from plot of kobs vs. the antibody concentration

T1 sequence (P14780 20-707 limits assumed): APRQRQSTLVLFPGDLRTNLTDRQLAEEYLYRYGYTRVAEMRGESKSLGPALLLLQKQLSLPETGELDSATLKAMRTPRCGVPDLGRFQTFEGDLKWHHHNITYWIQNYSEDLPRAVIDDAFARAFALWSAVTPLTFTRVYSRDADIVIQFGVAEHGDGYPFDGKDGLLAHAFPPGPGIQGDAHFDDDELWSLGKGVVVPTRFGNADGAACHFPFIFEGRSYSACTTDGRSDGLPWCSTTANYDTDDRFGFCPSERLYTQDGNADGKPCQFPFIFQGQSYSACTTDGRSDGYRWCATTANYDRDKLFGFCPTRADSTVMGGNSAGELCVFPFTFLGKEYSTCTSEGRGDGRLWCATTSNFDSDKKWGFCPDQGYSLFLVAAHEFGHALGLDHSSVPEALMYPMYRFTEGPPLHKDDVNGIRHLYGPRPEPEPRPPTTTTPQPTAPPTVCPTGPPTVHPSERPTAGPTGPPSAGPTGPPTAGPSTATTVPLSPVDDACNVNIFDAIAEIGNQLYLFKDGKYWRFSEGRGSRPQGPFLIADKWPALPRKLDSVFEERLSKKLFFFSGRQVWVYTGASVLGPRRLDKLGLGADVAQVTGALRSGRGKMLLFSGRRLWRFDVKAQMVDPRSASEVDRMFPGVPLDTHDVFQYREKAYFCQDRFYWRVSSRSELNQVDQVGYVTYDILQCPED

- Binding of Pro-huMMP-9 (human pro-MMP-9): observed neither
- Binding of Pro-huMMP-9 (human pro-MMP-9; listed as 539A-M0166F10): ~No
- Binding of huTIMP-1/cat-huMMP-9 (h-MMP-9/h-TIMP-1 complex; Direct capture): no binding was observed
- Binding of huTIMP-1/cat-huMMP-9 (h-MMP-9/h-TIMP-1 complex; Direct capture, listed as 539A-M0166F10): No
- Binding of Cat-huMMP-9 [1, 8]: binds
- Binding of Cat-huMMP-9 ([1]; Direct capture (amine coupling) of antibody on CM5 chip, listed as 539A-M0166F10): Yes
- Binding of Cat-huMMP-9 [1, 9]: binds
- Binding of Cat-huMMP-9 ([1]; Fc capture (anti-Fc antibody surface), listed as 539A-M0166F10): Yes
- Binding of huTIMP-1 (human TIMP-1): No
B1: M0166-F10: inhibitory MMP-9 binding antibody (hMMP-9 antibody inhibitor) (antibody, V domains shown)
VL: QSELTQPPSASAAPGQRVTISCSGSSSNIGSNTVTWYQKLPGTAPKLLIYNNYERPSGVPARFSGSKSGTSASLAISGLQSEDEADYYCATWDDSLIANYVFGSGTKVTVLGQPKANP
VH: EVQLLESGGGLVQPGGSLRLSCAASGFTFSPYLMNWVRQAPGKGLEWVSSIYSSGGGTGYADSVKGRFTISRDNSKNTLYLQMNSLRAEDTAVYYCARIYHSSSGPFYGMDVWGQGTTVTVSSASTKGPSVFPLAPSSKS

- inhibition model (Mouse MMP-9): non competitive inhibitor
- inhibition model [3]: non competitive inhibitor
- Binding of Pro-huMMP-9 (human pro-MMP-9; listed as 539A-M0237D02): No
- Binding of Pro-huMMP-9 (human pro-MMP-9; listed as M237-D02): observed neither
- Binding of huTIMP-1/cat-huMMP-9 (h-MMP-9/h-TIMP-1 complex; Direct capture): No
- Binding of huTIMP-1/cat-huMMP-9 (h-MMP-9/h-TIMP-1 complex; Fc capture, listed as 539A-M0237D02): No
- Binding of Cat-huMMP-9 [1, 8]: No
- Binding of Cat-huMMP-9 ([1]; Fc capture (anti-Fc antibody surface), listed as 539A-M0237D02): Yes
- Binding of huTIMP-1 (human TIMP-1): No
- koff [7, 10]: ~4 10^−4 s^−1
- kon [7, 10]: ~7 10^4 M^−1 s^−1
B2: M0237-D02: MMP-9/-2 dual reactive antibody inhibitor (parental); used as hIgG1 and Fab; VL/VH sequences in Example 7 (antibody, V domains shown)
VL: QDIQMTQSPATLSLSPGERATLSCRASQSISSFLAWYQQKPGQAPRLLIYDASYRATGIPARFSGSGSGTDFTLTISSLEPEDYAVYYCQQRGNWPITFGQGTRLEIKRTVAAPS
VH: EVQLLESGGGLVQPGGSLRLSCAASGFTFSQYPMWWVRQAPGKGLEWVSYIVPSGGRTYYADSVKGRFTISRDNSKNTLYLQMNSLRAEDTAVYYCAKDRAYGDYVGWNGFDYWGQGTLVTVSSASTKGPSVFPLAPSSKS
- lymphocyte infiltration [2]: significantly decreased
- neutrophil infiltration [2]: significantly decreased
- total white blood cell infiltration [2]: significantly decreased
- Binding of huTIMP-1/cat-huMMP-9 (h-MMP-9/h-TIMP-1 complex; Fc capture): no binding was observed; also recorded: cannot bind
- Binding of Cat-huMMP-9 [1, 9]: could be observed only if this antibody was captured via an anti-Fc antibody
- inhibition of gelatinolytic activity [4]: complete inhibition
- inhibition of gelatinolytic activity [5]: complete inhibition
- arthritic index [6]: decreased
- kobs ([7]; M0237-D02 concentration 14.4 nM): 0.0013 s⁻¹
- kobs ([7]; M0237-D02 concentration 19.2 nM): 0.0019 s⁻¹
- kobs ([7]; M0237-D02 concentration 28.8 nM): 0.0024 s⁻¹
- kobs ([7]; M0237-D02 concentration 115.2 nM): 0.0086 s⁻¹
